Experimental findings from patent WO2014167826A1 (dated 2014) are described below.

One assay addresses T1, p3-40.
T1 construct: also called Aβ17-40; 17-40
T1 peptide: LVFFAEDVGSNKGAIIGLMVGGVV
The assay is described as follows: sandwich ELISA, 1A10 capture, HRP-2G2 detection.

A further assay concerns the target T2, p3-42.
T2 construct: also called Aβ17-42; 17-42
T2 peptide: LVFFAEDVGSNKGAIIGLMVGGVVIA
As to the kind of experiment: sandwich ELISA, 44A3 capture, HRP-2G2 detection. On the technique in general: ELISA stands for enzyme-linked immunosorbent assay.

B1: 2G2 antibody (antibody, V domains shown)
VH: QVQLQQPGSELVRPGASVKLSCEASGYTFTSYWIHWVKQRPGQGLEWIGNIYPGSGDTNYDERFKSKATLTVDTSSNTAYMQLISLTSDDSAVYYCTRGKNWGQGTTLTVSS
VL: DIQMNQSPSSLSASLGDTITITCHASQNINVWLSWYQQKPGNIPRLLIYKVSNLHTGVPSRFSGSGSGTGFTLTISSLQPEDIATYYCQQGQSYPLTFGGGTKLEIR
notes: Used unlabelled in the Western blot and conjugated to horseradish peroxidase (HRP) as detection antibody in the sandwich ELISAs; only the CDRs are; also called clone 2G2; 2G2 monoclonal antibody
With B1, the binding result with p3-40 and with p3-42 was “binds” each time.
